In patent US6998239B1, “Method for identifying a modulator of the binding of CCX CKR polypeptide to a chemokine” (ChemoCentryx, Inc., priority 1999, dated 2006):
“Also recorded” adds a separate entry of the source.

T1: CCX CKR (Homo sapiens, UniProt Q9NPB9)
T1 construct: Full length CCX CKR expression constructs were made in pIRESpuro expression vector; expressed in transfected cells
T1 sequence (Q9NPB9 1-350): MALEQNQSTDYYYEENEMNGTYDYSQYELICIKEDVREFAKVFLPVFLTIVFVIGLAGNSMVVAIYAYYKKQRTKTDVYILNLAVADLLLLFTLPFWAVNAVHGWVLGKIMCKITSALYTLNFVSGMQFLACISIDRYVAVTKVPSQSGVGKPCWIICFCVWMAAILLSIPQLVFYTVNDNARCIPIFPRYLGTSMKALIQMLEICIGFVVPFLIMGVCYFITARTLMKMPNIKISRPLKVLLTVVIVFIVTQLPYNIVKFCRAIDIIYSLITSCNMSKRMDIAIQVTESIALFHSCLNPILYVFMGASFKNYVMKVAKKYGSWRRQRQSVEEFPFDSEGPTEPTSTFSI


How the values were obtained:
CCX CKR [1] = biological target: T1, CCX CKR; assay: Ligand binding fingerprint: displacement of 125I-ELC from CCX CKR stable transfectants by cold chemokines; settings: cold competitor 200 nM; human and murine ELC, SLC, TECK; comparable with 125I-TECK
Excerpt: (§1) In one embodiment, binding is detected as described by Dairaghi et al., 1997, J. Biol. Chem. 272:28206-209 (incorporated by reference in its entirety for all purposes) substituting CCX CKR transfectants for the CCR3 transfectants). In one embodiment, binding is detected using the filter based technique described by Dairaghi et al., 1999, J. Biol. Chem. 274:2156 (incorporated by reference in its entirety for all purposes), e.g., as shown in FIG. 4. Briefly, this technology employs expanded, efficiency-maximized radioligand binding utilizing filtration protocols. In these assays, 1×10^5 CCXCKR-293 HEK cells are incubated with […] (MlP3beta) (final concentration of ˜0.05 nM) in the presence of unlabeled chemokine for 3 h at 4° C. in 25 mM HEPES, 140 mM NaCl, 1 mM CaCl2, 5 mM MgCl2, and 0.2% bovine serum albumin, adjusted to pH 7.1. Reactions were aspirated onto PEI-treated GF/B glass filters using a cell harvester (Packard). Filters are washed twice (25 mM HEPES, 500 mM NaCl, 1 mM CaCl25 mM MgCl2, adjusted to pH 7.1) and scintillant (e.g., MicroScint 20; 50 μl) is added to dried filters and counted (e.g., using a Packard Topcount scintillation counter). The competition dose-response curves is analyzed by standard methods to determine IC50 values (e.g., using GraphPad Prism software (San Diego, Calif.)). Additionally, a Scatchard transformation can be used to estimate the receptor sites per cell (e.g., using WaveMetrics Igor software (Lake Oswego, Oreg.)).
In order to rapidly and thoroughly define a given chemokine receptor's ligand binding fingerprint, we have established an approach to comprehensively profile chemokine receptors using a large array of purified chemokines and chemokine variants. We used this approach to confirm independently the interaction of ELC and other chemokines with CCX CKR. Employing radioligand binding of ^125I-labeled-ELC or ^125I-TECK to CCX CKR stable transfectants, chemokine specificity for the new receptor was determined.
(§2) Binding analysis was carried out using efficiency-maximized radioligand binding utilizing filtration protocols designated “Displace Max” (Dairaghi et al., 1999, J Biol. Chem. 274:21569). In these assays, DisplaceMax employed the simultaneous interrogation of CCX CKR transfectants by >80 distinct purified chemokines in the ability to displace radiolabeled ELC or TECK, using the protocol described (Dairaghi et al., 1999, J Biol. Chem. 274:21569).

CCX CKR [2] = biological target: T1, CCX CKR; assay: Radioligand binding competition with Scatchard transformation (binding constants); settings: for Affinity class of CCX CKR ligands (summary of Examples 4-6): summary statement
Excerpt: as §1, §2
The binding interactions identified in the primary screen were examined quantitatively by extensive radioligand binding competition to CCX CKR stable transfectants and Scatchard transformation of the displacement data (FIG. 4B). […] In each case, the murine versions of these chemokines also bound, and with even greater affinity; the apparent Kd's are listed in FIG. 4B. […] In similar experiments, murine CTACK bound the receptor with a Kd of ˜9 nM (not shown). CTACK is also referred to as CCL27, ALP, ILC, and ESkine.

CCX CKR [3] = biological target: T1, CCX CKR; assay: Ligand induced internalization of CCX CKR in 293 F-CCR10 cells (FACS, anti-Flag); format: cell-based; settings: 100 nM chemokine, 37° C., 15 or 45 minutes
Description: 293 cells transfected with the Flag-CCX CKR fusion plasmid (i.e., “293 F-CCR10 cells;” see Example 3) were incubated at 37° C. with varying concentrations of chemokines (ELC, SLC, TECK, murine CTACK and MCP4) for 15 or 45 minutes. Following incubation, the cells were washed and fixed with 3% paraformaldehyde for 15 minutes on ice. The cells were stained with anti-Flag M1 antibody, followed by a PE-conjugated anti-mouse secondary antibody. FACS analysis were then carried out to determine surface expression of the receptor.
Results: A reduction in antibody binding in the presence of ligand is an indication of ligand-induced internalization of the receptor.

CCX CKR [4] = biological target: T1, CCX CKR; assay: Homologous competition binding of radiolabeled chemokine on HEK293-CCX CKR cells; settings: data not shown
Excerpt: Furthermore ELC-SK mediated adhesion was abolished in the presence of soluble native ELC as a competitor (FIG. 3A, top row). […] Moreover, radiolabeled ELC was used in a traditional homologous competition assay in the presence of increasing concentrations of unlabeled ELC. […] Taken together, the stalkokine-based adhesion and radiolabeled ligand binding/homologous competition assays indicate that CCX CKR is a new chemokine receptor that bound a novel compliment of chemokines.

CCX CKR [5] = biological target: T1, CCX CKR; assay: Adhesion of HEK293-CCX CKR cells to immobilized ELC-stalkokine and competition by soluble chemokines; format: cell-based; settings: 5-10 ug/ml soluble recombinant chemokine as competitor
Excerpt: “Stalkokine” technology was used to :identify the chemokines bound by the CCX CKR. Briefly, immobilized native chemokines alone are incapable of capturing cells bearing cognate receptors (Imai et al., 1997, Cell 91:521). We have developed non-native chemokine structures, stalkokines, comprising chemokine moieties engineered as N-terminal attachments to extended modified mucins (Bazan et al., 1997, Nature 385:640). In one embodiment, stalkokines, harvested in the supernatants of HEK293 cells after transient transfection, are anchored to solid substrates via antibodies against carrier domains (e.g. poly-His epitopes) engineered to the carboxyl terminus, leaving the chemokine domain free to interact with candidate orphan receptors.
To determine ligand binding to CCX CKR, HEK293-CCX CKR cells were used to interrogate chemokine ‘stalkokines’ (SK), i.e., molecules in which discrete chemokine domains were engineered to be tethered to the end of an extended stalk structure. […] In all cases, nonadherent cells were removed by washing in PBS; remaining adherent cells were fixed with 1% glutaraldehyde, photoimaged and counted. […]

CCX CKR [6] = biological target: T1, CCX CKR; assay: Preliminary chemotaxis analysis of CCX CKR transfectants; format: cell-based; settings: preliminary chemotaxis analyses, not shown

Molecule | Binding to CCX CKR by displacement of 125I-labeled ELC (CCX CKR [1]) | Affinity for CCX CKR in multipoint competition, in words (CCX CKR [2]; competition against 125I-ELC) | Affinity class of CCX CKR ligands (summary of Examples 4-6) (CCX CKR [2]) | Internalization of the receptor (CCX CKR [3]) | Homologous competition of radiolabeled TECK with cold TECK (CCX CKR [4]) | Effect of soluble chemokine on ELC-SK mediated adhesion of HEK293-CCX CKR cells (CCX CKR [5]) | Migration of CCX CKR transfectants in response to chemokine (CCX CKR [6])
vMIPII: virally-encoded chemokine from the human Kaposi's sarcoma herpesvirus HHV8 (protein) LGASWHRPDKCCLGYQKRPLPQVLLSSWYPTSQLCSKPGVIFLTKRGRQVCADKSKDWVKKLMQQLPVTAR | lower affinity | moderate to low affinity | lower affinity |  |  |  | 
murine CTACK: murine chemokine CTACK, also referred to as CCL27, ALP, ILC, and ESkine (protein) LPLPSSTSCCTQLYRQPLPSRLLRRIVHMELQEADGDCHLQAVVLHLARRSVCVHPQNRSLARWLERQGKRLQGTVPSLNLVLQKKMYSHPQQQN |  |  | high affinity | Internalization of the receptor was observed |  |  | 
TECK: thymus expressed chemokine, recombinant (protein) QGVFEDCCLAYHYPIGWAVLRRAWTYRIQEVSGSCNLPAAIFYLPKRHRKVCGNPKSREVQRAMKLLDARNKVFAKLHHNTQTFQAGPHAVKKLSSGNSKLSSSKFSNPISSSKRNVSLLISANSGL | bound well |  | high affinity | Internalization of the receptor was observed | Nearly identical results | ablation of adhesion; also recorded: significant reduction | 
SLC: secondary lymphoid-tissue chemokine, recombinant (protein) SDGGAQDCCLKYSQRKIPAKVVRSYRKQEPSLGCSIPAILFLPRKRSQAELCADPKELWVQQLMQHLDKTPSPQKPAQGCRKDRGASKTGKKGKGSKGCKRTERSQTPKGP | bound well |  | high affinity | Internalization of the receptor was observed |  | ablation of adhesion; also recorded: significant reduction | moderate migration
mMIP-1gamma: murine chemokine MIP-1γ (CCF18) (protein) QITHATETKEVQSSLKAQQGLEIEMFHMGFQDSSDCCLSYNSRIQCSRFIGYFPTSGGCTRPGIIFISKRGFQVCANPSDRRVQRCIERLEQNSQPRTYKQ | moderately |  | lower affinity |  |  |  | 
